PMC3633241 (The Febs Journal, 2013)

Molecular target: the molecule itself
Experiment: SDS/PAGE with western blotting

B1: Pho89–Myc-His6 (full-length recombinant Saccharomyces cerevisiae high-affinity phosphate transporter Pho89 fusion protein) (natural protein, S. cerevisiae, UniProt P38361 1-574, looked up)
chain: MALHQFDYIFAIAMLFAFLDAFNIGANDVANSFASSISSRSLKYWQAMVLAGLCEFLGAVLAGARVSGTIKNNIIDSSIFTNDPAVLMLTMTSALIGSSCWLTFATAIGMPVSTTHSIVGGTIGAGIAAGGANGVVWGWSGVSQIIASWFIAPILAGAIAAIVFSISRFSVLEVKSLERSIKNALLLVGVLVFATFSILTMLIVWKGSPNLHLDDLSETETAVSIVLTGAIASIVYFIFFYPFYRRKVLDQDWTLKLIDIFRGPSFYFKSTDDIPPMPEGHQLTIDYYEGRRNLGTTVSVEDEENKAASNSNDSVKNKEDIQEVDLVRTETEPETKLSTKQYWWSLLKQGPKKWPLLFWLVISHGWTQDVIHAQVNDRDMLSGDLKGMYERSKFYDNRVEYIYSVLQAITAATMSFAHGANDVANATGPLSAVYVIWKTNTIGAKSEVPVWVLAYGGVALVIGCWTYGYNIIKNLGNKMILQSPSRGFSIELAVAITTVMATQLGIPTSTTQIAVGGIVAVGLCNKDLKSVNWRMVAWCYSGWFLTLPIAGLIAGIINGIILNAPRFGVEYQMT
binding result: binds
